Experimental data reported in PMC11574045, “A cofactor-induced repressive type of transcription factor condensation can be induced by synthetic peptides to suppress tumorigenesis” (The EMBO Journal, 2024).

Tested on: HEK293FT cells transfected with TF library
Assay: Screening of TF condensates based on fluorescent puncta
Format: cell-based
Settings: Figure 1B numerical data; TF library screen, one value per transcriptional factor
In short: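 Puncta scoring used automated confocal imaging of fifty random fields per well, after anti-Flag or anti-GAL4 immunofluorescence (Alexa 488) in PFA-fixed cells. HEK293FT cells carried TF library plasmids delivered with PEI (1.6 μg/ml DNA). At 60 h they were switched for 12 h to glucose-containing or glucose-free medium.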

| Molecule | Z score of condensed fraction |
| --- | --- |
| IRF8 (protein, UniProt Q02556 1-426, looked up) Interferon regulatory factor 8: MCDRNGGRRLRQWLIEQIDSSMYPGLIWENEEKSMFRIPWKHAGKQDYNQEVDASIFKAWAVFKGKFKEGDKAEPATWKTRLRCALNKSPDFEEVTDRSQLDISEPYKVYRIVPEEEQKCKLGVATAGCVNEVTEMECGRSEIDELIKEPSVDDYMGMIKRSPSPPEACRSQLLPDWWAQQPSTGVPLVTGYTTYDAHHSAFSQMVISFYYGGKLVGQATTTCPEGCRLSLSQPGLPGTKLYGPEGLELVRFPPADAIPSERQRQVTRKLFGHLERGVLLHSSRQGVFVKRLCQGRVFCSGNAVVCKGRPNKLERDEVVQVFDTSQFFRELQQFYNSQGRLPDGRVVLCFGEEFPDMAPLRSKLILVQIEQLYVRQLAEEAGKSCGAGSVMQAPEEPPPDQVFRMFPDICASHQRSFFRENQQITV | 2.123 |
| LASS3 (protein, UniProt Q8IU89 1-383, looked up) Ceramide synthase 3: MFWTFKEWFWLERFWLPPTIKWSDLEDHDGLVFVKPSHLYVTIPYAFLLLIIRRVFEKFVASPLAKSFGIKETVRKVTPNTVLENFFKHSTRQPLQTDIYGLAKKCNLTERQVERWFRSRRNQERPSRLKKFQEACWRFAFYLMITVAGIAFLYDKPWLYDLWEVWNGYPKQPLLPSQYWYYILEMSFYWSLLFRLGFDVKRKDFLAHIIHHLAAISLMSFSWCANYIRSGTLVMIVHDVADIWLESAKMFSYAGWTQTCNTLFFIFSTIFFISRLIVFPFWILYCTLILPMYHLEPFFSYIFLNLQLMILQVLHLYWGYYILKMLNRCIFMKSIQDVRSDDEDYEEEEEEEEEEATKGKEMDCLKNGLRAERHLIPNGQHGH | -1.783 |
| JDP2 (protein, UniProt P97875 1-163, looked up) Jun dimerization protein 2: MMPGQIPDPSVTAGSLPGLGPLTGLPSSALTTEELKYADIRNIGAMIAPLHFLEVKLGKRPQPVKSELDEEEERRKRRREKNKVAAARCRNKKKERTEFLQRESERLELMNAELKTQIEELKLERQQLILMLNRHRPTCIVRTDSVRTPESEGNPLLEQLDKK | -1.182 |
| JUNB (protein, UniProt P17275 1-347, looked up) Transcription factor JunB: MCTKMEQPFYHDDSYTATGYGRAPGGLSLHDYKLLKPSLAVNLADPYRSLKAPGARGPGPEGGGGGSYFSGQGSDTGASLKLASSELERLIVPNSNGVITTTPTPPGQYFYPRGGGSGGGAGGAGGGVTEEQEGFADGFVKALDDLHKMNHVTPPNVSLGATGGPPAGPGGVYAGPEPPPVYTNLSSYSPASASSGGAGAAVGTGSSYPTTTISYLPHAPPFAGGHPAQLGLGRGASTFKEEPQTVPEARSRDATPPVSPINMEDQERIKVERKRLRNRLAATKCRKRKLERIARLEDKVKTLKAENAGLSSTAGLLREQVAQLKQKVMTHVSNGCQLLLGVKGHAF | -0.9915 |
| KLRG1 (protein, UniProt Q96E93 1-195, looked up) Killer cell lectin-like …: MTDSVIYSMLELPTATQAQNDYGPQQKSSSSRPSCSCLVAIALGLLTAVLLSVLLYQWILCQGSNYSTCASCPSCPDRWMKYGNHCYYFSVEEKDWNSSLEFCLARDSHLLVITDNQEMSLLQVFLSEAFCWIGLRNNSGWRWEDGSPLNFSRISSNSFVQTCGAINKNGLQASSCEVPLHWVCKKCPFADQALF | 2.376 |
| JADE2 (protein, UniProt Q9NQC1 1-790, looked up) E3 ubiquitin-protein ligase …: MEEKRRKYSISSDNSDTTDSHATSTSASRCSKLPSSTKSGWPRQNEKKPSEVFRTDLITAMKIPDSYQLSPDDYYILADPWRQEWEKGVQVPAGAEAIPEPVVRILPPLEGPPAQASPSSTMLGEGSQPDWPGGSRYDLDEIDAYWLELINSELKEMERPELDELTLERVLEELETLCHQNMARAIETQEGLGIEYDEDVVCDVCRSPEGEDGNEMVFCDKCNVCVHQACYGILKVPTGSWLCRTCALGVQPKCLLCPKRGGALKPTRSGTKWVHVSCALWIPEVSIGCPEKMEPITKISHIPASRWALSCSLCKECTGTCIQCSMPSCVTAFHVTCAFDHGLEMRTILADNDEVKFKSFCQEHSDGGPRNEPTSEPTEPSQAGEDLEKVTLRKQRLQQLEEDFYELVEPAEVAERLDLAEALVDFIYQYWKLKRKANANQPLLTPKTDEVDNLAQQEQDVLYRRLKLFTHLRQDLERVRNLCYMVTRRERTKHAICKLQEQIFHLQMKLIEQDLCRGLSTSFPIDGTFFNSWLAQSVQITAENMAMSEWPLNNGHREDPAPGLLSEELLQDEETLLSFMRDPSLRPGDPARKARGRTRLPAKKKPPPPPPQDGPGSRTTPDKAPKKTWGQDAGSGKGGQGPPTRKPPRRTSSHLPSSPAAGDCPILATPESPPPLAPETPDEAASVAADSDVQVPGPAASPKPLGRLRPPRESKVTRRLPGARPDAGMGPPSAVAERPKVSLHFDTETDGYFSDGEMSDSDVEAEDGGVQRGPREAGAEEVVRMGVLAS | -1.0906 |
| ARRB1 (protein, UniProt P49407 1-418, looked up) Beta-arrestin-1: MGDKGTRVFKKASPNGKLTVYLGKRDFVDHIDLVDPVDGVVLVDPEYLKERRVYVTLTCAFRYGREDLDVLGLTFRKDLFVANVQSFPPAPEDKKPLTRLQERLIKKLGEHAYPFTFEIPPNLPCSVTLQPGPEDTGKACGVDYEVKAFCAENLEEKIHKRNSVRLVIRKVQYAPERPGPQPTAETTRQFLMSDKPLHLEASLDKEIYYHGEPISVNVHVTNNTNKTVKKIKISVRQYADICLFNTAQYKCPVAMEEADDTVAPSSTFCKVYTLTPFLANNREKRGLALDGKLKHEDTNLASSTLLREGANREILGIIVSYKVKVKLVVSRGGLLGDLASSDVAVELPFTLMHPKPKEEPPHREVPENETPVDTNLIELDTNDDDIVFEDFARQRLKGMKDDKEEEEDGTGSPQLNNR | 0.4258 |
| IRF3 (protein, UniProt Q14653 1-427, looked up) Interferon regulatory factor 3: MGTPKPRILPWLVSQLDLGQLEGVAWVNKSRTRFRIPWKHGLRQDAQQEDFGIFQAWAEATGAYVPGRDKPDLPTWKRNFRSALNRKEGLRLAEDRSKDPHDPHKIYEFVNSGVGDFSQPDTSPDTNGGGSTSDTQEDILDELLGNMVLAPLPDPGPPSLAVAPEPCPQPLRSPSLDNPTPFPNLGPSENPLKRLLVPGEEWEFEVTAFYRGRQVFQQTISCPEGLRLVGSEVGDRTLPGWPVTLPDPGMSLTDRGVMSYVRHVLSCLGGGLALWRAGQWLWAQRLGHCHTYWAVSEELLPNSGHGPDGEVPKDKEGGVFDLGPFIVDLITFTEGSGRSPRYALWFCVGESWPQDQPWTKRLVMVKVVPTCLRALVEMARVGGASSLENTVDLHISNSHPLSLTSDQYKAYLQDLVEGMDFQGPGES | 1.843 |
| JUP (protein, UniProt P14923 1-745, looked up) Junction plakoglobin: MEVMNLMEQPIKVTEWQQTYTYDSGIHSGANTCVPSVSSKGIMEEDEACGRQYTLKKTTTYTQGVPPSQGDLEYQMSTTARAKRVREAMCPGVSGEDSSLLLATQVEGQATNLQRLAEPSQLLKSAIVHLINYQDDAELATRALPELTKLLNDEDPVVVTKAAMIVNQLSKKEASRRALMGSPQLVAAVVRTMQNTSDLDTARCTTSILHNLSHHREGLLAIFKSGGIPALVRMLSSPVESVLFYAITTLHNLLLYQEGAKMAVRLADGLQKMVPLLNKNNPKFLAITTDCLQLLAYGNQESKLIILANGGPQALVQIMRNYSYEKLLWTTSRVLKVLSVCPSNKPAIVEAGGMQALGKHLTSNSPRLVQNCLWTLRNLSDVATKQEGLESVLKILVNQLSVDDVNVLTCATGTLSNLTCNNSKNKTLVTQNSGVEALIHAILRAGDKDDITEPAVCALRHLTSRHPEAEMAQNSVRLNYGIPAIVKLLNQPNQWPLVKATIGLIRNLALCPANHAPLQEAAVIPRLVQLLVKAHQDAQRHVAAGTQQPYTDGVRMEEIVEGCTGALHILARDPMNRMEIFRLNTIPLFVQLLYSSVENIQRVAAGVLCELAQDKEAADAIDAEGASAPLMELLHSRNEGTATYAAAVLFRISEDKNPDYRKRVSVELTNSLFKHDPAAWEAAQSMIPINEPYGDDMDATYRPMYSSDVPLDPLEMHMDMDGDYPIDTYSDGLRPPYPTADHMLA | -0.6246 |
| IRF5 (protein, UniProt Q13568 1-498, looked up) Interferon regulatory factor 5: MNQSIPVAPTPPRRVRLKPWLVAQVNSCQYPGLQWVNGEKKLFCIPWRHATRHGPSQDGDNTIFKAWAKETGKYTEGVDEADPAKWKANLRCALNKSRDFRLIYDGPRDMPPQPYKIYEVCSNGPAPTDSQPPEDYSFGAGEEEEEEEELQRMLPSLSLTEDVKWPPTLQPPTLRPPTLQPPTLQPPVVLGPPAPDPSPLAPPPGNPAGFRELLSEVLEPGPLPASLPPAGEQLLPDLLISPHMLPLTDLEIKFQYRGRPPRALTISNPHGCRLFYSQLEATQEQVELFGPISLEQVRFPSPEDIPSDKQRFYTNQLLDVLDRGLILQLQGQDLYAIRLCQCKVFWSGPCASAHDSCPNPIQREVKTKLFSLEHFLNELILFQKGQTNTPPPFEIFFCFGEEWPDRKPREKKLITVQVVPVAARLLLEMFSGELSWSADSIRLQISNPDLKDRMVEQFKELHHIWQSQQRLQPVAQAPPGAGLGVGQGPWPMHPAGMQ | -0.5098 |
| IRF9 (protein, UniProt Q00978 1-393, looked up) Interferon regulatory factor 9: MASGRARCTRKLRNWVVEQVESGQFPGVCWDDTAKTMFRIPWKHAGKQDFREDQDAAFFKAWAIFKGKYKEGDTGGPAVWKTRLRCALNKSSEFKEVPERGRMDVAEPYKVYQLLPPGIVSGQPGTQKVPSKRQHSSVSSERKEEEDAMQNCTLSPSVLQDSLNNEEEGASGGAVHSDIGSSSSSSSPEPQEVTDTTEAPFQGDQRSLEFLLPPEPDYSLLLTFIYNGRVVGEAQVQSLDCRLVAEPSGSESSMEQVLFPKPGPLEPTQRLLSQLERGILVASNPRGLFVQRLCPIPISWNAPQAPPGPGPHLLPSNECVELFRTAYFCRDLVRYFQGLGPPPKFQVTLNFWEESHGSSHTPQNLITVKMEQAFARYLLEQTPEQQAAILSLV | 1.05 |
| IRF1 (protein, UniProt P10914 1-325, looked up) Interferon regulatory factor 1: MPITRMRMRPWLEMQINSNQIPGLIWINKEEMIFQIPWKHAAKHGWDINKDACLFRSWAIHTGRYKAGEKEPDPKTWKANFRCAMNSLPDIEEVKDQSRNKGSSAVRVYRMLPPLTKNQRKERKSKSSRDAKSKAKRKSCGDSSPDTFSDGLSSSTLPDDHSSYTVPGYMQDLEVEQALTPALSPCAVSSTLPDWHIPVEVVPDSTSDLYNFQVSPMPSTSEATTDEDEEGKLPEDIMKLLEQSEWQPTNVDGKGYLLNEPGVQPTSVYGDFSCKEEPEIDSPGGDIGLSLQRVFTDLKNMDATWLDSLLTPVRLPSIQAIPCAP | -0.5727 |
| IRF2 (protein, UniProt P14316 1-349, looked up) Interferon regulatory factor 2: MPVERMRMRPWLEEQINSNTIPGLKWLNKEKKIFQIPWMHAARHGWDVEKDAPLFRNWAIHTGKHQPGVDKPDPKTWKANFRCAMNSLPDIEEVKDKSIKKGNNAFRVYRMLPLSERPSKKGKKPKTEKEDKVKHIKQEPVESSLGLSNGVSDLSPEYAVLTSTIKNEVDSTVNIIVVGQSHLDSNIENQEIVTNPPDICQVVEVTTESDEQPVSMSELYPLQISPVSSYAESETTDSVPSDEESAEGRPHWRKRNIEGKQYLSNMGTRGSYLLPGMASFVTSNKPDLQVTIKEESNPVPYNSSWPPFQDLPLSSSMTPASSSSRPDRETRASVIKKTSDITQARVKSC | -0.3538 |
